Measured values taken from publication PMC7016869.
Values joined by “and” are separate entries in the source; they are usually repeats but may differ in a detail not shown here. Identical values can stand only once.

What was measured:
[1] = molecular target: Exchange protein directly activated by cAMP 1 (EPAC1), recombinant full-length wild-type EPAC1B (human); experiment: SAXS; EPAC1 with 1 mM cAMP, no Rap1b, 2.7 mg/mL, 10 mM Tris pH 9, 1 mM EDTA, 10 mM DTT, 500 mM NaCl; monomer to dimer
[2] = molecular target: Exchange protein directly activated by cAMP 1 (EPAC1), recombinant full-length wild-type EPAC1B (human); experiment: MST; EPAC1-cAMP and Rap1; no further conditions told

C-terminally truncated Rap1b (1-167), sequence (P61224 1-167): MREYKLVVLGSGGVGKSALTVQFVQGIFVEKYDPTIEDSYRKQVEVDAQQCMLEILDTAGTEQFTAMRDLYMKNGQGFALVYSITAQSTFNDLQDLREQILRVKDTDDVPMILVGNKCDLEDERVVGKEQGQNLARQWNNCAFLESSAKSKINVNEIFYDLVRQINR

| percent monomer in solution (EOM/polydispersity analysis) [1] [%] | stoichiometry N [1] | Kd [2] [nM] | Substance |
| --- | --- | --- | --- |
| 5 to 15 | 1.8 and 2.4 and 2.2 |  | Exchange protein directly activated by cAMP 1 (EPAC1), recombinant full-length wild-type EPAC1B (natural protein) |
|  |  | 20 to 60 | C-terminally truncated Rap1b (1-167) (from UniProt P61224 1-167) (domain or fragment) |
